# Source: US7556950 (Takeda / Millennium, dated 2009)
# B1: recombinant catalytic domain of human phosphodiesterase 4-D3 (PDE4-D3), residues 253-580 of SEQ. ID No. 1, after removal of the N-terminal 6x-histidine tag … (enzyme)
# chain: GAMDPTEQEDVLAKELEDVNKWGLHVFRIAELSGNRPLTVIMHTIFQERDLLKTFKIPVDTLITYLMTLEDHYHADVAYHNNIHAADVVQSTHVLLSTPALEAVFTDLEILAAIFASAIHDVDHPGVSNQFLINTNSELALMYNDSSVLENHHLAVGFKLLQEENCDIFQNLTKKQRQSLRKMVIDIVLATDMSKHMNLLADLKTMVETKKVTSSGVLLLDNYSDRIQVLQNMVHCADLSNPTKPLQLYRQWTDRIMEEFFRQGDRERERGMEISPMCDKHNASVEKSQVGFIDYIVHPLWETWADLVHPDAQDILDTLEDNREWYQSTIPQSP
# notes: The limits 24-357 come from the claims, which define the protein of the Rolipram complex this way; The purified protein was buffer-exchanged with a 2-molar excess of the small molecule Rolipram; Expressed in Hi5 insect cells; also called PDE4D3 catalytic domain; purified PDE4-D3
# Biological target: the molecule itself
# Assay: analytical size-exclusion chromatography; self-association (homodimer) of the purified catalytic domain
protein,measurement,value
B1,binding result,binds
